Assay results: patent publication US20190292517A1

Biological target: CD3 on human peripheral blood T cells (human) (UniProt P07766)
Test: cell-based or functional assay

## muromonab (OKT3), anti-CD3 antibody
  fold expansion of human T cells at day 13, 0.5 ug anti-CD3 on APC-MS (1:1 with anti-CD28): 600 to 700 fold
  fold expansion of human T cells at day 13, 1 ug anti-CD3 on APC-MS (1:1 with anti-CD28): 300 to 400 fold
  fold expansion of human T cells at day 13, 5 ug anti-CD3 on APC-MS (1:1 with anti-CD28): 600 to 800 fold

## HIT3a, antibody recognizing 17-19 kD epsilon-chain of CD3 within the CD3 antigen/T cell antigen receptor (TCR) complex
  fold expansion of human T cells at day 13, 1 ug anti-CD3 on APC-MS (1:1 with anti-CD28): 300 to 400 fold
  fold expansion of human T cells at day 13, 5 ug anti-CD3 on APC-MS (1:1 with anti-CD28): 600 to 800 fold

## UCHT1, monoclonal antibody recognizing a 20 kDa subunit of the TCR complex within CD3e
  fold expansion of human T cells at day 13, 5 ug anti-CD3 on APC-MS (1:1 with anti-CD28): 600 to 800 fold
